Source: patent US20240317826A1 (ALBERT EINSTEIN COLLEGE OF MEDICINE, published 2024)

Biological target: T1, GST-CTD (C-terminal domain of HIV-1 integrase, aa 201-288, GST fusion) (HIV-1 (Hx3B), UniProt P04585 1348-1435)
T1 construct: domain: C-terminal (IN-CTD, aa 201-288 of integrase); also called IN-CTD; pGST-IN-CTD(aa 201-288); not shown: GST tag from pGEX3xPL vector
Assay: Alpha proximity competition, low salt: increasing INI1183-304 added to GST-CTD + biotinylated TAR RNA; displaced competitor is TAR RNA

B1: His6-SUMO-INI1183-304 (other)
chain: PEVLVPIRLDMEIDGQKLRDAFTWNMNEKLMTPEMFSEILCDDLDLNPLTFVPAIASAIRQQIESYPTDSILEDQSDQRVIIKLNIHVGNISLVDQFEWDMSEKENSPEKFALKLCSELGLG
notes: range 183-304; also called 6His-SUMO-INI1183-304; Rpt1 (cartoon label); not shown: His6-SUMO (h6-smt3) tag from pET28a-h6-smt3
IC50: ~5 nM
